Assay results from US20150290319A1 (EMERGENT BIOSOLUTIONS CANADA, published 2015).
Residue numbers refer to the chain shown, from its start.

Assays:
[1] = target: T1, Clostridium difficile toxin B (whole toxin B) (Clostridium difficile); assay: BLI (Octet QKe), mAb on SA sensor, toxin B analyte, model 2:1
T1 construct: also called TcdB; tcdB

[2] = target: T1, Clostridium difficile toxin B (whole …); assay: BLI (Octet QKe), mAb on AHC sensor, toxin B analyte, model 2:1
[3] = target: T1, Clostridium difficile toxin B (whole …); assay: BLI (Octet QKe), mAb on SA sensor, toxin B analyte, model 1:1
[4] = target: T1, Clostridium difficile toxin B (whole …); assay: BLI (Octet QKe), mAb on SA sensor, toxin B analyte, model 1:1; head prints KD (nM) but Kdis/Kon gives this number in M
bovine serum albumin = target: T2, bovine serum albumin (bovine, UniProt P02769 25-607); assay: Western blot (FIGS. 4-6)
T2 construct: also called BSA; commercial BSA
T2 sequence (P02769 25-607 limits assumed): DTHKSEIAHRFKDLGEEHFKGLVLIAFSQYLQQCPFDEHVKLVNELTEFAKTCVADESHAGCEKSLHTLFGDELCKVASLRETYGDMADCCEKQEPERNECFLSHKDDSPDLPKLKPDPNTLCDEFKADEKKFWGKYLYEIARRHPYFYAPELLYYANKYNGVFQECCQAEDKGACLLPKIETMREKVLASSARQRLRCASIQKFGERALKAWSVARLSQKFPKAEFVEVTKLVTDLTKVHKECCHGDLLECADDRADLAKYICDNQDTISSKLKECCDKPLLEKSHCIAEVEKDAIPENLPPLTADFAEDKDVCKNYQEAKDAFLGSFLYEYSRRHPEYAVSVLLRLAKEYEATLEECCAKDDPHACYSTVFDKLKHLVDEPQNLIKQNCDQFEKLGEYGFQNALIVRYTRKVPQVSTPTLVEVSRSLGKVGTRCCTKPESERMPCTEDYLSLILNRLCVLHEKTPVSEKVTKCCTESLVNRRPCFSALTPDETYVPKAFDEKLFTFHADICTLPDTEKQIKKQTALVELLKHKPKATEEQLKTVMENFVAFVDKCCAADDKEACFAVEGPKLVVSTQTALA

[5] = target: T1, Clostridium difficile toxin B (whole …); assay: cell-based or functional assay
[6] = target: T3, Clostridium difficile toxin A (whole toxin A) (Clostridium difficile, UniProt P16154 1-2710); assay: ELISA on coated whole toxin A (FIG. 1)
T3 construct: mature; also called TcdA
T3 sequence (P16154 whole entry): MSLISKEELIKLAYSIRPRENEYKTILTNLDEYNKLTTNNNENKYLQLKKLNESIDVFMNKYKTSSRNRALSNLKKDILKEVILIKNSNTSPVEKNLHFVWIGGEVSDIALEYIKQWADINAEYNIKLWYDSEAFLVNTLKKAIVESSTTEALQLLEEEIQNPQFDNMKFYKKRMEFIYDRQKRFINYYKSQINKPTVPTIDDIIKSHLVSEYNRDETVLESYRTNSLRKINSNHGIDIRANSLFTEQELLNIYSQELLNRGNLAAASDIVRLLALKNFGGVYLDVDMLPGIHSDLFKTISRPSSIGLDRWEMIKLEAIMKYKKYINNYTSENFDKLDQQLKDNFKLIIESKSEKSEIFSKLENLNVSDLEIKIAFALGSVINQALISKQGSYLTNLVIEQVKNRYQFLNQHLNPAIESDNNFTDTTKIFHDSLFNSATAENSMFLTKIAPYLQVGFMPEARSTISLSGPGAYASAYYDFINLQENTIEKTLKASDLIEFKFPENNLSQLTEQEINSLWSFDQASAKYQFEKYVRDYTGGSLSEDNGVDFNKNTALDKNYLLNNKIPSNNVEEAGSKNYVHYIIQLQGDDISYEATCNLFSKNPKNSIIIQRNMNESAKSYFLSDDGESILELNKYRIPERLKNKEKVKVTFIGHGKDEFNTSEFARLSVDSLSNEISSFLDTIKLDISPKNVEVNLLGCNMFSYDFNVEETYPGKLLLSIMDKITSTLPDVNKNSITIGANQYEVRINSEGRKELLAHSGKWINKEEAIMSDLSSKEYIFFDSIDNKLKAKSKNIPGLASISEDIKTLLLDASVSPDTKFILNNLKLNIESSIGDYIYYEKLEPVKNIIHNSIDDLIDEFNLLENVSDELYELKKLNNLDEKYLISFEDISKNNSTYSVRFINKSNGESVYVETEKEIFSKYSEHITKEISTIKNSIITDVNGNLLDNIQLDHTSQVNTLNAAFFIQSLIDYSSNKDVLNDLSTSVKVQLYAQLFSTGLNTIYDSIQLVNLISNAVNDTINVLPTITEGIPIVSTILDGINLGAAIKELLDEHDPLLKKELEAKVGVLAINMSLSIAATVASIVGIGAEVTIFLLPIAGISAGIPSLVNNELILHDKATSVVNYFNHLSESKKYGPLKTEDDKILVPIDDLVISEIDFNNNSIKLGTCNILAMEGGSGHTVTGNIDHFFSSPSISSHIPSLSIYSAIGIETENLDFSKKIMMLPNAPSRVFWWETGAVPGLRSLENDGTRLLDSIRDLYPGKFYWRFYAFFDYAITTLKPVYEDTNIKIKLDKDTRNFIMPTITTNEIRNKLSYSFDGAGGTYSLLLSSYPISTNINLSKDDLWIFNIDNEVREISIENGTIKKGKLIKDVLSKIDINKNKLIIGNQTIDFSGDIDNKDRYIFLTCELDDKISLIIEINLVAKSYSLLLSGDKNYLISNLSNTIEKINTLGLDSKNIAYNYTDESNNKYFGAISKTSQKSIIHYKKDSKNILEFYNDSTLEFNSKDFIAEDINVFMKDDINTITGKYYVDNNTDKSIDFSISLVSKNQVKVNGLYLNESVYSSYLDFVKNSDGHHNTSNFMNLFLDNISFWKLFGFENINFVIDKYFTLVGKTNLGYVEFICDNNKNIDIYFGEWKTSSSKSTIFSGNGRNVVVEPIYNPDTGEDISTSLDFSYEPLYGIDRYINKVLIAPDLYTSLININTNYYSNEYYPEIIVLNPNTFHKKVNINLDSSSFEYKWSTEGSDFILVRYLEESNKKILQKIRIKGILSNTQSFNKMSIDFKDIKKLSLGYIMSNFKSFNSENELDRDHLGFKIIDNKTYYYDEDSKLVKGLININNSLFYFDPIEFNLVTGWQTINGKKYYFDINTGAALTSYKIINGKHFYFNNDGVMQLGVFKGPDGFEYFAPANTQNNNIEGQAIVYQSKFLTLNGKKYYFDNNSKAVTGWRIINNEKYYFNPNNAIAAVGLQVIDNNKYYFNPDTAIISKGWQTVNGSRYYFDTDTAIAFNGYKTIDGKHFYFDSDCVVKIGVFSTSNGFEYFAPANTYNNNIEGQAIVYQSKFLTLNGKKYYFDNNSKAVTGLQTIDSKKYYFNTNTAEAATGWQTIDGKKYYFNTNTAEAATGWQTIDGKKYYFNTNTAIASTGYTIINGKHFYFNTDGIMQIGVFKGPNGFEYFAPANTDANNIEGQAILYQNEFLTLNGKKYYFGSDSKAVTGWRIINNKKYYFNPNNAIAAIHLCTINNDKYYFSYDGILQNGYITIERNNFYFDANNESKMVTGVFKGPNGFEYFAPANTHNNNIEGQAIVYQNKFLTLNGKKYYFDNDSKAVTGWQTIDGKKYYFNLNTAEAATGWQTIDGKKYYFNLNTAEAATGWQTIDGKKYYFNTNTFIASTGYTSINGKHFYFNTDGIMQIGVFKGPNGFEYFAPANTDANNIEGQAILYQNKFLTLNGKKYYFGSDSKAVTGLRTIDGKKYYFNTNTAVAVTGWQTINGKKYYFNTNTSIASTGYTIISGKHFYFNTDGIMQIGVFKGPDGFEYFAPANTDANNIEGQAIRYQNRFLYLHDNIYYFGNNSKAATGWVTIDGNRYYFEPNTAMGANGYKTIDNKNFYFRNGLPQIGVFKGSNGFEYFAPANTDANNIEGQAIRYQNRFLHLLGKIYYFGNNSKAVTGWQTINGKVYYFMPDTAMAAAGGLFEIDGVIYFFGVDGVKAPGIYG

[7] = target: T4, recombinant toxin B fragment 4 (Clostridium difficile, UniProt P18177 1777-2366); assay: ELISA, coated antigen, mAb 0.1-1 µg/ml (FIG. 1)
T4 sequence (P18177 1777-2366 limits assumed): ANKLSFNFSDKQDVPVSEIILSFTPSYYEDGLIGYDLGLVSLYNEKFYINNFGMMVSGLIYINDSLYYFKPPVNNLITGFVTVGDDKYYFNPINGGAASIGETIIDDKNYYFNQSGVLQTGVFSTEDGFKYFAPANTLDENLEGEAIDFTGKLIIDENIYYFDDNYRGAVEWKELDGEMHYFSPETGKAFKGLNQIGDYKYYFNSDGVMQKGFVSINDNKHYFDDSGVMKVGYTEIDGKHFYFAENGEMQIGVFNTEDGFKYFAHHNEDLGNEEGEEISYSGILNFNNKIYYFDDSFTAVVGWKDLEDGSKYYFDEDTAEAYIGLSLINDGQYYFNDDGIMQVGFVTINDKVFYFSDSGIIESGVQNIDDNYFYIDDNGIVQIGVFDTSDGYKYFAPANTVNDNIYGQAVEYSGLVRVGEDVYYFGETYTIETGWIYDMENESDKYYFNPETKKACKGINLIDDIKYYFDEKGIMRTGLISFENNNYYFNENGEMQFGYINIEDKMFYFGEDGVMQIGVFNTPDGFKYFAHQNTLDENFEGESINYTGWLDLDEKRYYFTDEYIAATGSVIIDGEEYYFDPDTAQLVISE

[8] = target: T5, recombinant toxin B fragment 1 (Clostridium difficile, UniProt P18177 1-546); assay: Western blot, 5 ug protein per lane, mAb at 5 ug/ml
T5 sequence (P18177 1-546 limits assumed): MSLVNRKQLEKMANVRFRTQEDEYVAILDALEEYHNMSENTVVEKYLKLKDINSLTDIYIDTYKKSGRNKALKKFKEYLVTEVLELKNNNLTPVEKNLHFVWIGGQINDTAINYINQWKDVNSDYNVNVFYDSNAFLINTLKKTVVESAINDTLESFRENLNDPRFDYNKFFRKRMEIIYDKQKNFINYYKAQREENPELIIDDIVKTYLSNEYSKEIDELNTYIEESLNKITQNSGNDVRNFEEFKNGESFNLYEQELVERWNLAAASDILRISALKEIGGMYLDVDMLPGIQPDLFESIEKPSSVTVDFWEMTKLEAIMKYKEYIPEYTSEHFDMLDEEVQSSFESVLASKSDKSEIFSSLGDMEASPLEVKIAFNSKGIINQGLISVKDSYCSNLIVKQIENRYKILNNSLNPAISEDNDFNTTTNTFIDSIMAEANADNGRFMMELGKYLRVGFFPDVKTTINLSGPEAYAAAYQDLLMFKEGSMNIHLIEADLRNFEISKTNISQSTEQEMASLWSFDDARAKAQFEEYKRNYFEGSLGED

[9] = target: T1, Clostridium difficile toxin B (whole …); assay: biolayer interferometry (Octet QKe); biotinylated antibody on streptavidin sensor, toxin B 50-0.78 nM
[10] = target: T5, recombinant toxin B fragment 1; assay: Western blot, 2 ug protein per lane, mAb at 2 ug/ml
[11] = target: T4, recombinant toxin B fragment 4; assay: ELISA, coated antigen, antibody at 0.5 ug/ml, OD405 at 15 min
[12] = target: T5, recombinant toxin B fragment 1; assay: Western blot, 2 ug protein per lane, mAb at 2 ug/ml; remark: listed apart in the source
[13] = target: T1, Clostridium difficile toxin B (whole …); assay: cell-based or functional assay; remark: listed apart in the source
[14] = target: T1, Clostridium difficile toxin B (whole …); assay: BLI (Octet QKe), mAb on AHC sensor, toxin B analyte, model 2:1; head prints KD (nM) but Kdis/Kon gives this number in M
[15] = target: T1, Clostridium difficile toxin B (whole …); assay: BLI (Octet QKe), mAb from CHOK1SV, toxin B; column kdis2 (1/s)
[16] = target: T4, recombinant toxin B fragment 4; assay: Western blot, 2 ug protein per lane, mAb at 2 ug/ml
[17] = target: T1, Clostridium difficile toxin B (whole …); assay: BLI (Octet QKe), mAb on SA sensor, toxin B analyte, model 2:1, first of three rows
[18] = target: T1, Clostridium difficile toxin B (whole …); assay: BLI (Octet QKe), mAb on SA sensor, toxin B analyte, model 2:1, third of three rows
[19] = target: T4, recombinant toxin B fragment 4; assay: Western blot, 3 ug protein per lane, mAb from CHOK1SV at 5 ug/mL
[20] = target: T5, recombinant toxin B fragment 1; assay: ELISA, coated antigen, antibody at 0.5 ug/ml, OD405 at 15 min

B1: huCAN46G4 (antibody, V domains shown)
VH: EVQLLQSGAEVKKPGSSVKISCKASDYSFTGYYMHWVKQAPGQGLEWIGRIFPYNGAASYNQNFKDKATLTVDKSSSTAYMELHSLRSEDTAVYYCTRWLRVYFDYWGQGTLVTVSS
VL: EKVLTQSPATLSLSPGERATMTCSASSSVSYMHWYQQKPGTSPKLWIYETSKLAFGVPARFSGSGSGNSYSLTISSLEPEDFAVYYCFQGSGYPFTFGQGTRLEIK
koff [1]: 0.000928 s⁻¹ | kon [1]: 590000 M⁻¹ s⁻¹ | koff [2]: 0.000754 s⁻¹ | kon [2]: 2.12e+06 M⁻¹ s⁻¹

B2: rehuCAN46G4 (antibody, V domains shown)
VH: B1 VH with K12V, D26G, V72A, S76T, S77N, H84S, T91S
VL: B1 VL with L13A, A19V, T22S, T41Q, N68T, S69D, L77M, V84T
koff [3]: 0.000235 s⁻¹ | kon [3]: 590000 M⁻¹ s⁻¹ | Kd [4]: 0.399 nM

B3: CAN46G24 (antibody, V domains shown)
VH: EVQLLQSGPELVKPGTSVKISCKASGYSFTGYYIHWVKQTHVKSLEWVGRIFPYNGAASYNQNFKGKATLTVDKSSSTAYMELHSLTSEDSAVYFCARWLRVYFDYWGQGTTLTVSS
VL: EIVLTQSPAIMSTSPGEKVTMSCSASSSVTYMHWYQQKSITSPKLWIYETSKLASGVPGRFSGSGSGNSYSLTISSMEAEDVATYYCFQGSGYPFTFGSGTKLEIK
notes: also called CAN46G24-2-3; murine CAN46G24
binding result (bovine serum albumin): no binding (tested: 2 µg/ml to 5 µg/ml) | Mean EC50, neutralization of TcdB on HT-29 cells (xCELLigence) [5]: 44.2 mg/L | binding result [6]: no binding (tested: 0.1 µg/ml to 1 µg/ml) | binding result [7]: binds | binding result [8]: no binding (tested: 5 ug/ml) | Kd [9]: 1.89 nM | koff [9]: 0.00028 s⁻¹ | kon [9]: 149000 M⁻¹ s⁻¹

B4: CAN46G13 (antibody, V domains shown)
VH: B3 VH
VL: B3 VL
notes: also called CAN46G13-1-5; murine CAN46G13
binding result (bovine serum albumin): no binding (tested: 2 µg/ml to 5 µg/ml) | Mean EC50, neutralization of TcdB on HT-29 cells (xCELLigence) [5]: 136 mg/L | binding result [6]: no binding (tested: 0.1 µg/ml to 1 µg/ml) | binding result [10]: no binding (tested: 2 ug/ml) | binding result [11]: binds | Kd [9]: 1.17 nM | koff [9]: 0.000149 s⁻¹ | kon [9]: 128000 M⁻¹ s⁻¹

B5: CAN46G4 (antibody, V domains shown)
VH: B3 VH with T16A, G26D, I34M, T40S, V48I, G66D, F95Y, A97T
VL: B3 VL with I2K, T13A, K18E, S22T, T30S, I40S, S55F, I105V
notes: also called CAN46G4-1-2; murine CAN46G4
binding result (bovine serum albumin): no binding (tested: 2 µg/ml to 5 µg/ml) | Mean EC50, neutralization of TcdB on HT-29 cells (xCELLigence) [5]: 142 mg/L | binding result [6]: no binding (tested: 0.1 µg/ml to 1 µg/ml) | binding result [7]: binds | binding result [12]: no binding (tested: 2 ug/ml) | Kd [9]: 1.41 nM | koff [9]: 0.000101 s⁻¹ | kon [9]: 71800 M⁻¹ s⁻¹

B6: CAN46G19 (antibody, V domains shown)
VH: B3 VH with S77T
VL: B3 VL with I2N, A9T, T13A, K18E, S22T
notes: also called CAN46G19-3-2; murine CAN46G19
binding result (bovine serum albumin): no binding (tested: 2 µg/ml to 5 µg/ml) | Mean EC50, neutralization of TcdB on HT-29 cells (xCELLigence) [5]: 142 mg/L | binding result [6]: no binding (tested: 0.1 µg/ml to 1 µg/ml) | binding result [7]: binds | binding result [12]: no binding (tested: 2 ug/ml) | Kd [9]: 1.27 nM | koff [9]: 0.000145 s⁻¹ | kon [9]: 114000 M⁻¹ s⁻¹

B7: rehuCAN46G19 (antibody, V domains shown)
VH: EVQLVQSGAEVVKPGESVKISCKASGYSFTGYYIHWVKQTPGQSLEWVGRIFPYNGAASYNQNFKGKATLTVDKSTTTAYMELSSLRSEDSAVYFCARWLRVYFDYWGQGTTLTVSS
VL: ENVLTQSPSSMSASVGDRVTMTCSASSSVTYMHWYQQKPGKSPKLWIYETSKLASGVPSRFSGSGSGNDYSLTISSMQPEDVATYYCFQGSGYPFTFGQGTKLEIK
antibody concentration giving 100% neutralization of toxin B on CT-26 cells, mAb from CHO (FIG. 25) [13]: ~0.3 µg/mL | koff [3]: 0.00021 s⁻¹ | kon [3]: 1.36e+06 M⁻¹ s⁻¹ | Kd [4]: 0.154 nM

B8: huCAN46G19 (antibody, V domains shown)
VH: B7 VH with V12K, I20V, T40A, S44G, T76S, S91T, L113V
VL: B7 VL with M11L, M21I, S42A, S59G, D69S, S71T, L72F, M77L, V82I, L103V
notes: also called HuCAN46G19-3-2
Kd [14]: 0.178 nM

B9: rehuCAN46G24 (antibody, V domains shown)
VH: B7 VH with T77S
VL: B7 VL with N2I, A13T, T22S
antibody concentration giving 100% neutralization of toxin B on CT-26 cells, mAb from CHO (FIG. 25) [13]: ~0.3 µg/mL | koff [15]: 1.2e-05 s⁻¹

B10: CAN46G13a (antibody, V domains shown)
VH: DVQLQESGPGLVKPSQSLSLTCTVTGYSITSDSAWNWIRQFPGNNLEWMGYISYSGSTSYNPSLKSRISITRDTSKNQFFLQLNSVTTEDTATYYCARRSRVSFYFDYWGQGTTLTVSS
VL: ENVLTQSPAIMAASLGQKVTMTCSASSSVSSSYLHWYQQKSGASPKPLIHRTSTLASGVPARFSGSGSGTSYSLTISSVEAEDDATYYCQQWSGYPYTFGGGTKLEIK
notes: also called CAN46G13-1-8; murine CAN46G13a
binding result (bovine serum albumin): no binding (tested: 2 µg/ml to 5 µg/ml) | binding result [6]: no binding (tested: 0.1 µg/ml to 1 µg/ml) | binding result [16]: no binding (tested: 2 ug/ml) | koff [17]: 0.00357 s⁻¹ | kon [17]: 678000 M⁻¹ s⁻¹ | koff [18]: 0.00598 s⁻¹ | kon [18]: 73700 M⁻¹ s⁻¹ | Kd [9]: 8.57 nM | koff [9]: 0.00693 s⁻¹ | kon [9]: 808000 M⁻¹ s⁻¹

B11: huCAN46G13a (antibody, V domains shown)
VH: B10 VH with D1Q, S17T, F80S, Q82K, L83V, T88A, E89A, T93V, T114L, L115V
VL: ENVLTQSPSSLSASVGDRVTMTCSASSSVSSSYLHWYQQKPGKSPKPLIHRTSTLASGVPSRFSGSGSGTSYSLTISSLQPEDIATYYCQQWSGYPYTFGGGTKVEIK
koff [3]: 0.000234 s⁻¹ | kon [3]: 552000 M⁻¹ s⁻¹ | koff [15]: < 1e-07 s⁻¹ | binding result [19]: no binding (tested: 5 ug/mL) | Kd [4]: 0.423 nM

B12: CAN33G1 (antibody, V domains shown)
VH: EVQLQQSGPDLVKPGASVKISCKASGYSFTGYYMHWVKQSHGKSLEWIGRVNPYNGDTNYNQNFKDKAILTVDKSASTAYMEFRSLTSEDSAVYYCTRSNWENYFDYWGQGSTLTVSS
VL: DIQLTQSSSSFSVSLGDRVTITCKASEDIYNRLAWYQQRPGNAPRLLISGATSLETGIPSRFSGSGSGKEYTLSIASLQTEDFVTYYCQQYWNIPTFGGGTRLEIK
notes: also called murine CAN33G1; CAN33 mAb
binding result [20]: no binding (tested: 0.5 ug/ml) | Kd [9]: 10.9 nM | koff [9]: 0.000591 s⁻¹ | kon [9]: 54400 M⁻¹ s⁻¹
